# Experimental data as given in patent EP2974737A1 (Ablynx N.V., dated 2016).
# Key:
# Test in all cases: SPR, interference factor immobilized; % of Fig. 9 reference
# [1] = target: T1, purified interference factor(s) from Donor A (human)
# T1 construct: also called interference in serum from Donor A
# [2] = target: T2, purified interference factor(s) from Donor B (human)
# T2 construct: the text names the donors 8, 19 and 30; also called interference in serum from Donor B
# [3] = target: T3, purified interference factor(s) from Donor C (human)
# T3 construct: the text names the donors 8, 19 and 30; also called interference in serum from Donor C
Binder,"interference binding, % of Reference Sequence [1]","interference binding, % of Reference Sequence [2]","interference binding, % of Reference Sequence [3]"
SEQ ID NO: 47 (VHH) VHH: EVQLVESGGGLVQPGGSLRLSCAASGSVFKINVMAWYRQAPGKGRELVAGIISGGSTSYADSVKGRFTISRDNAKNTLYLQMNSLRPEDTAVYYCAFITTESDYDLGRRYWGQGTLVTVSS,1%,–,–
SEQ ID NO: 65 (VHH) VHH: EVQLVESGGGLVQAGGSLRLSCAASRSIGRLDRMGWYRHRPGEPRELVATITGGSSINYGDSVKGRFTISIDNSKNTVYLQMNSLRPEDTAVYYCNFNKYVTSRDTWGQGTLVTVSS,73%,121%,64%
SEQ ID NO: 70 (VHH) VHH: EVQLVESGGGLVQPGGSLRLSCAASRSIGRLDRMGWYRHRPGEPRELVATITGGSSINYGDSVKGRFTISIDNSKNTVYLQMNSLRPEDTAVYYCNFNKYVTSRDTWGQGTLVQVSS,90%,105%,98%
SEQ ID NO: 72 (VHH) VHH: EVQLVESGGGLVQPGGSLRLSCAASRSIGRLDRMGWYRHRPGEPRELVATITGGSSINYGDSVKGRFTISIDNSKNTVYLQMNSLRPEDTAVYYCNFNKYVTSRDTWGQGTLVTVGG,70%,47%,56%
SEQ ID NO: 68 (VHH) VHH: EVQLVESGGGLVQAGGSLRLSCAASRSIGRLDRMGWYRHRPGEPRELVATITGGSSINYGDSVKGRFTISIDNSKNTVYLQMNSLRPEDTAVYYCNFNKYVTSRDTWGQGTQVTVSS,38%,115%,49%
SEQ ID NO: 73 (VHH) VHH: EVQLVESGGGLVQPGGSLRLSCAASRSIGRLDRMGWYRHRPGEPRELVATITGGSSINYGDSVKGRFTISIDNSKNTVYLQMNSLRPEDTAVYYCNFNKYVTSRDTWGQGTLVTVGG,6%,8%,9%
SEQ ID NO: 66 (VHH) VHH: EVQLVESGGGSVQPGGSLRLSCAASRSIGRLDRMGWYRHRPGEPRELVATITGGSSINYGDSVKGRFTISIDNSKNTVYLQMNSLRPEDTAVYYCNFNKYVTSRDTWGQGTLVTVSS,81%,29%,84%
SEQ ID NO: 76 (VHH) VHH: EVQLVESGGGLVQPGGSLRLSCAASRSIGRLDRMGWYRHRPGEPRELVATITGGSSINYGDSVKGRFTISIDNSKNTVYLQMNSLRPEDTAVYYCNFNKYVTSRDTWGQGTLVTVSS,2%,17%,20%
SEQ ID NO: 69 (VHH) VHH: EVQLVESGGGLVQPGGSLRLSCAASRSIGRLDRMGWYRHRPGEPRELVATITGGSSINYGDSVKGRFTISIDNSKNTVYLQMNSLRPEDTAVYYCNFNKYVTSRDTWGQGTQVTVSS,80%,120%,84%
SEQ ID NO: 67 (VHH) VHH: EVQLVESGGGLVQPGGSLRLSCAASRSIGRLDRMGWYRHRPGEPRELVATITGGSSINYGDSVKGRFTISIDNSKNTVYLQMNSLKPEDTAVYYCNFNKYVTSRDTWGQGTLVTVSS,102%,117%,96%
SEQ ID NO: 75 (VHH) VHH: EVQLVESGGGLVQPGGSLRLSCAASRSIGRLDRMGWYRHRPGEPRELVATITGGSSINYGDSVKGRFTISIDNSKNTVYLQMNSLRPEDTAVYYCNFNKYVTSRDTWGQGTLVTVSS,1%,11%,16%
SEQ ID NO: 74 (VHH) VHH: EVQLVESGGGLVQPGGSLRLSCAASRSIGRLDRMGWYRHRPGEPRELVATITGGSSINYGDSVKGRFTISIDNSKNTVYLQMNSLRPEDTAVYYCNFNKYVTSRDTWGQGTLVTVSS,4%,41%,33%
SEQ ID NO: 71 (VHH) VHH: EVQLVESGGGLVQPGGSLRLSCAASRSIGRLDRMGWYRHRPGEPRELVATITGGSSINYGDSVKGRFTISIDNSKNTVYLQMNSLRPEDTAVYYCNFNKYVTSRDTWGQGTLVTVSG,88%,105%,87%
SEQ ID NO: 38 (VHH) EVQLVESGGGLVQPGGSLRLSCAASGFTFSSYAMSWVRQAPGKGLEWVSGIKSSGDSTRYAGSVKGRFTISRDNAKNTLYLQMNSLRPEDTAVYYCAKSRVSRTGLYTYDNRGQGTLVTVSSGGGGSGGGGSGGGGSGGGGSEVQLVESGGGLVQPGGSLRLSCAASGRTFNNYAMGWFRQAPGKEREFVAAITRSGVRSGVSAIYGDSVKDRFTISRDNAKNTLYLQMNSLRPEDTAVYYCAASAIGSGALRRFEYDYSGQGTLVTVSSA,9%,25%,7%
SEQ ID NO: 43 (VHH) DVQLVESGGGLVQPGGSLRLSCAASGFILDYYAIGWFRQAPGKEREGVLCIDASDDITYYADSVKGRFTISRDNSKNTVYLQMNSLRPEDTAVYYCATPIGLSSSCLLEYDYDYWGQGTLVTVSSGGGGSGGGSEVQLLESGGGLVQPGGSLRLSCAASGFTFRSFGMSWVRQAPGKGPEWVSSISGSGSDTLYADSVKGRFTISRDNSKNTLYLQMNSLRPEDTAVYYCTIGGSLSRSSQGTLVTVSSA,3%,20%,–
SEQ ID NO: 42 (VHH) EVQLVESGGGLVQPGGSLRLSCAASGRTFSYNPMGWFRQAPGKGRELVAAISRTGGSTYYPDSVEGRFTISRDNAKRMVYLQMNSLRAEDTAVYYCAAAGVRAEDGRVRTLPSEYTFWGQGTQVTVSSAAAEVQLVESGGGLVQPGGSLRLSCAASGRTFSYNPMGWFRQAPGKGRELVAAISRTGGSTYYPDSVEGRFTISRDNAKRMVYLQMNSLRAEDTAVYYCAAAGVRAEDGRVRTLPSEYTFWGQGTQVTVSSA,1%,4%,–

# Results, then the binder that gave them:
"interference binding, % of Reference Sequence [1]","interference binding, % of Reference Sequence [2]","interference binding, % of Reference Sequence [3]",Binder
94%,50%,89%,SEQ ID NO: 81 (VHH) VHH: EVQLVESGGGVVQPGGSLRLSCAASRSIGRLDRMGWYRHRPGEPRELVATITGGSSINYGDSVKGRFTISIDNSKNTVYLQMNSLRPEDTAVYYCNFNKYVTSRDTWGQGTLVTVSS
96%,80%,100%,SEQ ID NO: 82 (VHH) VHH: EVQLVESGGGLVQPGGSLRLSCAASRSIGRLDRMGWYRHRPGEPRELVATITGGSSINYGDSVKGRFTISIDNSKNTVYLQMNSLRAEDTAVYYCNFNKYVTSRDTWGQGTLVTVSS
1%,17%,13%,SEQ ID NO: 79 (VHH) VHH: EVQLVESGGGLVQPGGSLRLSCAASRSIGRLDRMGWYRHRPGEPRELVATITGGSSINYGDSVKGRFTISIDNSKNTVYLQMNSLRPEDTAVYYCNFNKYVTSRDTWGQGTLVTVSS
96%,96%,100%,SEQ ID NO: 78 (VHH) VHH: EVQLVESGGGLVRPGGSLRLSCAASRSIGRLDRMGWYRHRPGEPRELVATITGGSSINYGDSVKGRFTISIDNSKNTVYLQMNSLRPEDTAVYYCNFNKYVTSRDTWGQGTLVTVSS
56%,73%,61%,SEQ ID NO: 83 (VHH) VHH: EVQLVESGGGLVQPGGSLRLSCAASRSIGRLDRMGWYRHRPGEPRELVATITGGSSINYGDSVKGRFTISIDNSKNTVYLQMNSLRPEDAAVYYCNFNKYVTSRDTWGQGTLVTVSS
65%,5%,58%,SEQ ID NO: 80 (VHH) VHH: EVQLVESGGGLVQPGGSLRLSCAASRSIGRLDRMGWYRHRPGEPRELVATITGGSSINYGDSVKGRFTISIDNSKNTVYLQMNSLRPEDTAVYYCNFNKYVTSRDTWGQGTLVQVGG
84%,50%,83%,SEQ ID NO: 84 (VHH) VHH: EVQLVESGGGLVQPGGSLRLSCAASRSIGRLDRMGWYRHRPGEPRELVATITGGSSINYGDSVKGRFTISIDNSKNTVYLQMNSLRPEDTAVYYCNFNKYVTSRDTWGQGTLVTVGS
2%,12%,13%,SEQ ID NO: 77 (VHH) VHH: EVQLVESGGGLVQPGGSLRLSCAASRSIGRLDRMGWYRHRPGEPRELVATITGGSSINYGDSVKGRFTISIDNSKNTVYLQMNSLRPEDTAVYYCNFNKYVTSRDTWGQGTLVTVSS
